# Source: PMC7058361, “Functional interactions between posttranslationally modified amino acids of methyl-coenzyme M reductase in Methanosarcina acetivorans” (PLoS Biology, 2020)
# Biological target: the molecule itself
# Assay: crystal structure; TAP-tagged MCR variants affinity-purified aerobically from the modification mutants, inactive Ni(II) form; 3-30 mg/ml, hanging drops, same reservoir solution as the wild type; 1.9-2.3 Å
row,Protein,binding result
1,"McrA from the ΔmcmAΔycaO-tfuA double mutant of M. acetivorans (lacks S-methylcysteine and thioglycine) (natural protein, Methanosarcina acetivorans, UniProt Q8THH1 1-570, looked up, N1-methylhistidine at His271; 5-(S)-methylarginine at Arg285; didehydroaspartate at Asp470; Gly465 and Cys472 unmodified, McrA, alpha subunit of methyl-coenzyme M reductase, Methanosarcina acetivorans; chromosomally encoded; differs only in the posttranslational modifications; also called McrA from ΔycaO-tfuA/ΔmcmA; source: endogenous, M. acetivorans ΔmcmAΔycaO-tfuA strain with TAP-tagged mcrG) MAADIFAKFKKSMEVKFTQEYGSNKQAGGDITGKTEKFLRLGPEQDARKQEMIKAGKEIAEKRGIAFYNPMMHMGAPLGQRAITPYTISGTDIVAEPDDLHYVNNAAMQQMWDDIRRTCIVGLDMAHETLEKRLGKEVTPETINHYLETLNHAMPGAAVVQEMMVETHPALVDDCYVKIFTGDDELADEIDKQYVINVNKMFSEEQAAQIKASIGKTTWQAIHIPTIVSRTTDGAQTSRWAAMQIGMSFISAYAMCAGEAAVADLSFAAKHAALVSMGEMLPARRARGPNEPGGLSFGHLSDIVQTSRVSKDPAKIALEVVGAGCMLYDQIWLGSYMSGGVGFTQYATAAYTDDILDNNTYYDVDYINDKYNGAANLGTDNKVKATLDVVKDIATESTLYGIETYEKFPTALEDHFGGSQRATVLAAASGVACALATGNANAGLSGWYLSMYVHKEAWGRLGFFGFDLQDQCGATNVLSYQGDEGLPDELRGPNYPNYAMNVGHQGGYAGIAQAAHSGRGDAFTVNPLLKVCFADELMPFNFAEPRREFGRGAIREFMPAGERSLVIPAK",binds
2,"McrA from the ΔmamAΔycaO-tfuA double mutant of M. acetivorans (lacks 5-(S)-methylarginine and thioglycine) (natural protein, Methanosarcina acetivorans, UniProt Q8THH1 1-570, looked up, N1-methylhistidine at His271; didehydroaspartate at Asp470; S-methylcysteine at Cys472; Arg285 and Gly465 unmodified, McrA, alpha subunit of methyl-coenzyme M reductase, Methanosarcina acetivorans; chromosomally encoded; differs only in the posttranslational modifications; source: endogenous, M. acetivorans ΔmamAΔycaO-tfuA strain with TAP-tagged mcrG) MAADIFAKFKKSMEVKFTQEYGSNKQAGGDITGKTEKFLRLGPEQDARKQEMIKAGKEIAEKRGIAFYNPMMHMGAPLGQRAITPYTISGTDIVAEPDDLHYVNNAAMQQMWDDIRRTCIVGLDMAHETLEKRLGKEVTPETINHYLETLNHAMPGAAVVQEMMVETHPALVDDCYVKIFTGDDELADEIDKQYVINVNKMFSEEQAAQIKASIGKTTWQAIHIPTIVSRTTDGAQTSRWAAMQIGMSFISAYAMCAGEAAVADLSFAAKHAALVSMGEMLPARRARGPNEPGGLSFGHLSDIVQTSRVSKDPAKIALEVVGAGCMLYDQIWLGSYMSGGVGFTQYATAAYTDDILDNNTYYDVDYINDKYNGAANLGTDNKVKATLDVVKDIATESTLYGIETYEKFPTALEDHFGGSQRATVLAAASGVACALATGNANAGLSGWYLSMYVHKEAWGRLGFFGFDLQDQCGATNVLSYQGDEGLPDELRGPNYPNYAMNVGHQGGYAGIAQAAHSGRGDAFTVNPLLKVCFADELMPFNFAEPRREFGRGAIREFMPAGERSLVIPAK",binds
3,"McrA from the ΔmcmA mutant of M. acetivorans (lacks S-methylcysteine) (natural protein, Methanosarcina acetivorans, UniProt Q8THH1 1-570, looked up, N1-methylhistidine at His271; 5-(S)-methylarginine at Arg285; thioglycine at Gly465; didehydroaspartate at Asp470; Cys472 unmodified, McrA, alpha subunit of methyl-coenzyme M reductase, Methanosarcina acetivorans; chromosomally encoded; differs only in the posttranslational modifications; also called McrA with unmodified Cys472; source: endogenous, M. acetivorans ΔmcmA strain with TAP-tagged mcrG) MAADIFAKFKKSMEVKFTQEYGSNKQAGGDITGKTEKFLRLGPEQDARKQEMIKAGKEIAEKRGIAFYNPMMHMGAPLGQRAITPYTISGTDIVAEPDDLHYVNNAAMQQMWDDIRRTCIVGLDMAHETLEKRLGKEVTPETINHYLETLNHAMPGAAVVQEMMVETHPALVDDCYVKIFTGDDELADEIDKQYVINVNKMFSEEQAAQIKASIGKTTWQAIHIPTIVSRTTDGAQTSRWAAMQIGMSFISAYAMCAGEAAVADLSFAAKHAALVSMGEMLPARRARGPNEPGGLSFGHLSDIVQTSRVSKDPAKIALEVVGAGCMLYDQIWLGSYMSGGVGFTQYATAAYTDDILDNNTYYDVDYINDKYNGAANLGTDNKVKATLDVVKDIATESTLYGIETYEKFPTALEDHFGGSQRATVLAAASGVACALATGNANAGLSGWYLSMYVHKEAWGRLGFFGFDLQDQCGATNVLSYQGDEGLPDELRGPNYPNYAMNVGHQGGYAGIAQAAHSGRGDAFTVNPLLKVCFADELMPFNFAEPRREFGRGAIREFMPAGERSLVIPAK",binds
4,"McrA from the ΔmamAΔmcmA double mutant of M. acetivorans (lacks 5-(S)-methylarginine and S-methylcysteine) (natural protein, Methanosarcina acetivorans, UniProt Q8THH1 1-570, looked up, N1-methylhistidine at His271; thioglycine at Gly465; didehydroaspartate at Asp470; Arg285 and Cys472 unmodified, McrA, alpha subunit of methyl-coenzyme M reductase, Methanosarcina acetivorans; chromosomally encoded; differs only in the posttranslational modifications; source: endogenous, M. acetivorans ΔmamAΔmcmA strain with TAP-tagged mcrG) MAADIFAKFKKSMEVKFTQEYGSNKQAGGDITGKTEKFLRLGPEQDARKQEMIKAGKEIAEKRGIAFYNPMMHMGAPLGQRAITPYTISGTDIVAEPDDLHYVNNAAMQQMWDDIRRTCIVGLDMAHETLEKRLGKEVTPETINHYLETLNHAMPGAAVVQEMMVETHPALVDDCYVKIFTGDDELADEIDKQYVINVNKMFSEEQAAQIKASIGKTTWQAIHIPTIVSRTTDGAQTSRWAAMQIGMSFISAYAMCAGEAAVADLSFAAKHAALVSMGEMLPARRARGPNEPGGLSFGHLSDIVQTSRVSKDPAKIALEVVGAGCMLYDQIWLGSYMSGGVGFTQYATAAYTDDILDNNTYYDVDYINDKYNGAANLGTDNKVKATLDVVKDIATESTLYGIETYEKFPTALEDHFGGSQRATVLAAASGVACALATGNANAGLSGWYLSMYVHKEAWGRLGFFGFDLQDQCGATNVLSYQGDEGLPDELRGPNYPNYAMNVGHQGGYAGIAQAAHSGRGDAFTVNPLLKVCFADELMPFNFAEPRREFGRGAIREFMPAGERSLVIPAK",binds
5,"McrA from the ΔycaO-tfuA mutant of M. acetivorans (lacks thioglycine) (natural protein, Methanosarcina acetivorans, UniProt Q8THH1 1-570, looked up, N1-methylhistidine at His271; 5-(S)-methylarginine at Arg285; didehydroaspartate at Asp470; S-methylcysteine at Cys472; Gly465 unmodified, McrA, alpha subunit of methyl-coenzyme M reductase, Methanosarcina acetivorans; chromosomally encoded; differs only in the posttranslational modifications; also called McrA with unmodified Gly465; source: endogenous, M. acetivorans ΔycaO-tfuA strain with TAP-tagged mcrG) MAADIFAKFKKSMEVKFTQEYGSNKQAGGDITGKTEKFLRLGPEQDARKQEMIKAGKEIAEKRGIAFYNPMMHMGAPLGQRAITPYTISGTDIVAEPDDLHYVNNAAMQQMWDDIRRTCIVGLDMAHETLEKRLGKEVTPETINHYLETLNHAMPGAAVVQEMMVETHPALVDDCYVKIFTGDDELADEIDKQYVINVNKMFSEEQAAQIKASIGKTTWQAIHIPTIVSRTTDGAQTSRWAAMQIGMSFISAYAMCAGEAAVADLSFAAKHAALVSMGEMLPARRARGPNEPGGLSFGHLSDIVQTSRVSKDPAKIALEVVGAGCMLYDQIWLGSYMSGGVGFTQYATAAYTDDILDNNTYYDVDYINDKYNGAANLGTDNKVKATLDVVKDIATESTLYGIETYEKFPTALEDHFGGSQRATVLAAASGVACALATGNANAGLSGWYLSMYVHKEAWGRLGFFGFDLQDQCGATNVLSYQGDEGLPDELRGPNYPNYAMNVGHQGGYAGIAQAAHSGRGDAFTVNPLLKVCFADELMPFNFAEPRREFGRGAIREFMPAGERSLVIPAK",binds
6,"McrA from the ΔmamAΔmcmAΔycaO-tfuA triple mutant of M. acetivorans (lacks 5-(S)-methylarginine, S-methylcysteine and thioglycine) (natural protein, Methanosarcina acetivorans, UniProt Q8THH1 1-570, looked up, N1-methylhistidine at His271; didehydroaspartate at Asp470; Arg285, Gly465 and Cys472 unmodified, McrA, alpha subunit of methyl-coenzyme M reductase, Methanosarcina acetivorans; chromosomally encoded; differs only in the posttranslational modifications; also called McrA from the triple-deletion mutant; source: endogenous, M. acetivorans ΔmamAΔmcmAΔycaO-tfuA strain with TAP-tagged mcrG) MAADIFAKFKKSMEVKFTQEYGSNKQAGGDITGKTEKFLRLGPEQDARKQEMIKAGKEIAEKRGIAFYNPMMHMGAPLGQRAITPYTISGTDIVAEPDDLHYVNNAAMQQMWDDIRRTCIVGLDMAHETLEKRLGKEVTPETINHYLETLNHAMPGAAVVQEMMVETHPALVDDCYVKIFTGDDELADEIDKQYVINVNKMFSEEQAAQIKASIGKTTWQAIHIPTIVSRTTDGAQTSRWAAMQIGMSFISAYAMCAGEAAVADLSFAAKHAALVSMGEMLPARRARGPNEPGGLSFGHLSDIVQTSRVSKDPAKIALEVVGAGCMLYDQIWLGSYMSGGVGFTQYATAAYTDDILDNNTYYDVDYINDKYNGAANLGTDNKVKATLDVVKDIATESTLYGIETYEKFPTALEDHFGGSQRATVLAAASGVACALATGNANAGLSGWYLSMYVHKEAWGRLGFFGFDLQDQCGATNVLSYQGDEGLPDELRGPNYPNYAMNVGHQGGYAGIAQAAHSGRGDAFTVNPLLKVCFADELMPFNFAEPRREFGRGAIREFMPAGERSLVIPAK",binds
7,"McrA from the ΔmamA mutant of M. acetivorans (lacks 5-(S)-methylarginine) (natural protein, Methanosarcina acetivorans, UniProt Q8THH1 1-570, looked up, N1-methylhistidine at His271; thioglycine at Gly465; didehydroaspartate at Asp470; S-methylcysteine at Cys472; Arg285 unmodified, McrA, alpha subunit of methyl-coenzyme M reductase, Methanosarcina acetivorans; chromosomally encoded; differs only in the posttranslational modifications; also called McrA with unmodified Arg285; source: endogenous, M. acetivorans ΔmamA strain with TAP-tagged mcrG) MAADIFAKFKKSMEVKFTQEYGSNKQAGGDITGKTEKFLRLGPEQDARKQEMIKAGKEIAEKRGIAFYNPMMHMGAPLGQRAITPYTISGTDIVAEPDDLHYVNNAAMQQMWDDIRRTCIVGLDMAHETLEKRLGKEVTPETINHYLETLNHAMPGAAVVQEMMVETHPALVDDCYVKIFTGDDELADEIDKQYVINVNKMFSEEQAAQIKASIGKTTWQAIHIPTIVSRTTDGAQTSRWAAMQIGMSFISAYAMCAGEAAVADLSFAAKHAALVSMGEMLPARRARGPNEPGGLSFGHLSDIVQTSRVSKDPAKIALEVVGAGCMLYDQIWLGSYMSGGVGFTQYATAAYTDDILDNNTYYDVDYINDKYNGAANLGTDNKVKATLDVVKDIATESTLYGIETYEKFPTALEDHFGGSQRATVLAAASGVACALATGNANAGLSGWYLSMYVHKEAWGRLGFFGFDLQDQCGATNVLSYQGDEGLPDELRGPNYPNYAMNVGHQGGYAGIAQAAHSGRGDAFTVNPLLKVCFADELMPFNFAEPRREFGRGAIREFMPAGERSLVIPAK",binds

# Biological target: the molecule itself
# Assay: crystal structure; wild-type TAP-tagged MCR complex affinity-purified aerobically from M. acetivorans, inactive Ni(II) form; 25 mg/ml, sitting drops, 0.2 M ammonium acetate, 0.1 M sodium acetate pH 4, 15% PEG 4000, room temperature; 1.65 Å
row,Protein,binding result
1,"alpha subunit of methyl-coenzyme M reductase (McrA) from wild-type M. acetivorans, fully modified (natural protein, Methanosarcina acetivorans, UniProt Q8THH1 1-570, looked up, N1-methylhistidine at His271; 5-(S)-methylarginine at Arg285; thioglycine at Gly465; didehydroaspartate at Asp470; S-methylcysteine at Cys472, McrA, alpha subunit of methyl-coenzyme M reductase, Methanosarcina acetivorans; chromosomally encoded; Two copies stand in the α2β2γ2 complex; also called α subunit of MCR; α-subunit; source: endogenous, M. acetivorans strain with TAP-tagged mcrG) MAADIFAKFKKSMEVKFTQEYGSNKQAGGDITGKTEKFLRLGPEQDARKQEMIKAGKEIAEKRGIAFYNPMMHMGAPLGQRAITPYTISGTDIVAEPDDLHYVNNAAMQQMWDDIRRTCIVGLDMAHETLEKRLGKEVTPETINHYLETLNHAMPGAAVVQEMMVETHPALVDDCYVKIFTGDDELADEIDKQYVINVNKMFSEEQAAQIKASIGKTTWQAIHIPTIVSRTTDGAQTSRWAAMQIGMSFISAYAMCAGEAAVADLSFAAKHAALVSMGEMLPARRARGPNEPGGLSFGHLSDIVQTSRVSKDPAKIALEVVGAGCMLYDQIWLGSYMSGGVGFTQYATAAYTDDILDNNTYYDVDYINDKYNGAANLGTDNKVKATLDVVKDIATESTLYGIETYEKFPTALEDHFGGSQRATVLAAASGVACALATGNANAGLSGWYLSMYVHKEAWGRLGFFGFDLQDQCGATNVLSYQGDEGLPDELRGPNYPNYAMNVGHQGGYAGIAQAAHSGRGDAFTVNPLLKVCFADELMPFNFAEPRREFGRGAIREFMPAGERSLVIPAK",binds
